# Molecular target: the molecule itself
# Experiment: native MS; non-denaturing nano-electrospray MS; 10 uM protein (Q-ToF) or 15 uM protein (Synapt HDMS) sprayed from 15 mM ammonium acetate pH 7.5, cone voltage 80 V; monomer to dimer
row,Protein,stoichiometry N
1,"wild-type murine FTO (fat mass and obesity associated protein), full length (enzyme, mouse, UniProt Q8BGW1 1-502, looked up, also called mFTO; wild-type mFTO; source: E. coli, soluble; prepared as previously reported for full length mFTO [8]) MKRVQTAEEREREAKKLRLLEELEDTWLPYLTPKDDEFYQQWQLKYPKLVFREAGSIPEELHKEVPEAFLTLHKHGCLFRDVVRIQGKDVLTPVSRILIGDPGCTYKYLNTRLFTVPWPVKGCTVKYTEAEIAAACQTFLKLNDYLQVETIQALEELAVREKANEDAVPLCMAEFPRAGVGPSCDDEVDLKSRAAYNVTLLNFMDPQKMPYLKEEPYFGMGKMAVSWHHDENLVDRSAVAVYSYSCEGSEDESEDESSFEGRDPDTWHVGFKISWDIETPGLTIPLHQGDCYFMLDDLNATHQHCVLAGSQPRFSSTHRVAECSTGTLDYILERCQLALQNVLNDSDDGDVSLKSFDPAVLKQGEEIHNEVEFEWLRQFWFQGNRYKLCTDWWCEPMTHLEGLWKKMESMTNAVLREVKREGLPVEQRSEILSAILVPLTVRQNLRKEWHARCQSRVVRTLPVQQKPDCRPYWEKDDPSMPLPFDLTDVVSELRGQLLEARS",2
2,"C-terminal domain of wild-type murine FTO (residues D329-end) (domain or fragment, mouse, UniProt Q8BGW1 329-502, looked up, partial alpha-N-gluconylation of the N-terminal His-tag (+178 Da adduct, likely), FTO, mouse, C-terminal domain, residues 329-502; Further details of the construct are in Text S1; also called CmFTO; mFTO 329-502 truncation; source: E. coli, soluble; prepared as previously reported for full length mFTO [8]; not shown: His tag, N-terminal, kept) DYILERCQLALQNVLNDSDDGDVSLKSFDPAVLKQGEEIHNEVEFEWLRQFWFQGNRYKLCTDWWCEPMTHLEGLWKKMESMTNAVLREVKREGLPVEQRSEILSAILVPLTVRQNLRKEWHARCQSRVVRTLPVQQKPDCRPYWEKDDPSMPLPFDLTDVVSELRGQLLEARS",2

# Source: PMC2719869, “A Mouse Model for the Metabolic Effects of the Human Fat Mass and Obesity Associated FTO Gene” (PLoS Genetics, 2009)
